{"source": "paper PMC11068555", "biological_target": "SARS-CoV-2 S Foldon his (prefusion stabilized spike ectodomain) (SARS-CoV-2 (Wuhan-Hu-1) | bacteriophage T4) (UniProt P0DTC2)", "assay": "native gel or EMSA", "data": [{"substance": "SARS-CoV-2 S Foldon his (prefusion stabilized spike ectodomain) (from UniProt P0DTC2 14-1138) (domain or fragment)", "values": [{"measurement": "stoichiometry N", "value": 3}]}]}
